{
  "source": "patent US20090191217A1",
  "about": "(published 2009)",
  "binders": {"B1": {"name": "DOM4-130-3 (other)", "VL": "DIQMTQSPSSLSASVGDRVTITCRASQDIYLNLDWYQQKPGKAPKLLIYGTSNLQSGVPSRFSGSGSGTDFTLTISSLQPEDFATYYCQPSFYFPYTFGQGTKVEIRR"}, "B2": {"name": "DOM4-130-46 (other)", "VL": "DIQMTQSPSSLSASVGDRVTITCRASQDIYLNLDWYQQKPGKAPKLLINFGSELQSGVPSRFSGSGSGTDFTLTISSLQPEDFATYYCQPSFYFPYTFGQGTKVEIRR"}, "B3": {"name": "DOM4-122-23 (other)", "VL": "DIQMTQSPSSLSASVGDRVTITCRASQWIGRELRWYQQKPGKAPMFLIYHASRLQRGVPSRFSGSGSGTDFTLTISSLQPEDFATYYCQQYHGWPLTFGQGTKVEIKR"}, "B4": {"name": "DOM4-122-6 (other)", "VL": "DIQMTQSPSSLSASVGDRVTITCRASQWIGRELRWYQQKPGKAPMFLIYHASRLQSGVPSRFSGSGSGTDFTLTISSLQPEDFATYYCQQYHGWPLTFGQGTKVEIKR"}, "B5": {"name": "DOM4-129-1 (other)", "VL": "DIQMTQSPSSLSASVGDRVTITCRASQNIDRELRWYQQKPGKAPMFLIYHASRLQRGVPSRFSGSGSGTDFTLTISSLQPEDFATYYCQQYHDFPLTFGQGTKVEIKR"}},
  "data": [
    {"biological_target": "T1, Interleukin-1 receptor type 1 (IL-1R1) on cells (human, UniProt P14778 18-569)", "T1 sequence (looked up)": "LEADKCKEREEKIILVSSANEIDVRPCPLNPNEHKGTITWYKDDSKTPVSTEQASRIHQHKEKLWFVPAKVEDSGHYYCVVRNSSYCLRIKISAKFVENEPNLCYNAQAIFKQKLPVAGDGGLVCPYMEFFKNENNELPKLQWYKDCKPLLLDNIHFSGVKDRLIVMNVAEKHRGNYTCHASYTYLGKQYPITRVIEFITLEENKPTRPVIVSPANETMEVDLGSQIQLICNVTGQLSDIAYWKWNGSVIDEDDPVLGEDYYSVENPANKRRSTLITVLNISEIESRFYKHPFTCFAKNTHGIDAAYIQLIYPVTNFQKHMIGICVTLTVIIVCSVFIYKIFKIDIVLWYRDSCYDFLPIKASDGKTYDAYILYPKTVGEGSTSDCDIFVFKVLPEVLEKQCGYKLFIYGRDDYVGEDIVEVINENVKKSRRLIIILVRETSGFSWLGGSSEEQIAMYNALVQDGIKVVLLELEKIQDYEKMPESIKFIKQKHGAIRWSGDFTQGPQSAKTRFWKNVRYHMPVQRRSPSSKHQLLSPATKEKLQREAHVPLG", "assay": "cell-based or functional assay", "units": {"ND50, inhibition of IL-1-induced IL-8 release from MRC-5 cells": "nM"}, "values": [
      {"binder": "B1", "ND50, inhibition of IL-1-induced IL-8 release from MRC-5 cells": "~30"},
      {"binder": "B2", "ND50, inhibition of IL-1-induced IL-8 release from MRC-5 cells": "~1"},
      {"binder": "B3", "ND50, inhibition of IL-1-induced IL-8 release from MRC-5 cells": "~1"},
      {"binder": "B4", "ND50, inhibition of IL-1-induced IL-8 release from MRC-5 cells": "~10"},
      {"binder": "B5", "ND50, inhibition of IL-1-induced IL-8 release from MRC-5 cells": "~10"}
    ]}
  ]
}
